The target in test [1] is κI O18/O8 Y87H (human). Kind of test: AUC.
Test [2] addresses κI O18/O8 Y87H (human). Kind of test: NMR titration.

With κI O18/O8 Y87H (domain or fragment), the results for the Kd with κI O18/O8 Y87H (human) [1] and with κI O18/O8 Y87H (human) [2] were 420 µM and 347 µM, respectively.
